According to US10941182 (Amgen, dated 2021):
Read-outs that look alike come from different tables or passages of the source. Non-standard residues stand in square brackets, D forms with d. *: point of attachment. Oic = O=C(O)[C@@H]1C[C@@H]2CCCC[C@@H]2N1; Phe(4-Cl) = N[C@@H](Cc1ccc(Cl)cc1)C(=O)O; NMeR = CN[C@@H](CCCNC(=N)N)C(=O)O; Tridecanoyl = CCCCCCCCCCCCC(=O)*; Cha = N[C@@H](CC1CCCCC1)C(=O)O; Nle = CCCC[C@H](N)C(=O)O; AEEA = NCCOCCOCC(=O)O; Aib = CC(C)(N)C(=O)O

Assays:
Test in all cases: cell-based or functional assay
rat APJ receptor [1] = biological target: T1, rat APJ receptor (rat, UniProt Q9JHG3 1-377)
T1 sequence (looked up): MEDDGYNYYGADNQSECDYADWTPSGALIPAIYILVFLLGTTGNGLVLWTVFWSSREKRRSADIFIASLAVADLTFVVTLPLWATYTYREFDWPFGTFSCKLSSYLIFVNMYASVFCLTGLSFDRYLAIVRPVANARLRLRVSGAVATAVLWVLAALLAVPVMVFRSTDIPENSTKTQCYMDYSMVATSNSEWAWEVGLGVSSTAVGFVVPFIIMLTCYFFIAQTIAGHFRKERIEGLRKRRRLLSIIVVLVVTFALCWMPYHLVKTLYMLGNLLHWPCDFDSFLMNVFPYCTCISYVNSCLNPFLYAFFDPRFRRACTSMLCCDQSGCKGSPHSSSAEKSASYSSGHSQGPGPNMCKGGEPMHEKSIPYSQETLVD

human APJ receptor [2] = biological target: T2, human APJ receptor (human, UniProt P35414 1-380)
T2 sequence (looked up): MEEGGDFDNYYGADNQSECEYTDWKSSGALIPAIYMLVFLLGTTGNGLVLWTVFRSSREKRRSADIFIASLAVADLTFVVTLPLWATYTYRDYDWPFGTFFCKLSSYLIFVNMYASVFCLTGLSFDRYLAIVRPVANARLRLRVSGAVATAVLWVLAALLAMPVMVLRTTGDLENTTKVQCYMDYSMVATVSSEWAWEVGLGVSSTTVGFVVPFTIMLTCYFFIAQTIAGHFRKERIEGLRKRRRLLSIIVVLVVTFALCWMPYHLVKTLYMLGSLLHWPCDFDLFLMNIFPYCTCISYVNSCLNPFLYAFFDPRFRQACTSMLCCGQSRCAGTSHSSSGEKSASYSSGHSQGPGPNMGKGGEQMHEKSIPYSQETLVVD

rat APJ receptor [3] = biological target: T1, rat APJ receptor; remark: listed apart in the source
human APJ receptor [4] = biological target: T2, human APJ receptor; remark: listed apart in the source

Binder	EC50 Rat APJ Receptor (µM), GTPγS assay (rat APJ receptor [1])	EC50 Human APJ Receptor (µM), GTPγS assay (human APJ receptor [2])	EC50 Rat APJ Receptor (µM), GTPγS assay (rat APJ receptor [3])	EC50 Human APJ Receptor (µM), GTPγS assay (human APJ receptor [4])
Ac-QRP[NMeR][Cha]SHKG[Oic][Nle][Aib][Phe(4-Cl)]-OH [Acetylated version of peptide in Fc-peptide conjugate #4 (SEQ ID NO: 92)]	0.00323 µM	0.000679 µM	–	–
Tridecanoyl-[dE][AEEA][AEEA][dQ]RP[NMeR][Cha]SHKG[Oic][Nle][Aib][Phe(4-Cl)]-OH (SMILES CCCCCCCCCCCCC(=O)N[C@H](CCC(=O)O)C(=O)NCCOCCOCC(=O)NCCOCCOCC(=O)N[C@H](CCC(N)=O)C(=O)N[C@@H](CCCNC(=N)N)C(=O)N1CCC[C@H]1C(=O)N(C)[C@@H](CCCNC(=N)N)C(=O)N[C@@H](CC1CCCCC1)C(=O)N[C@@H](CO)C(=O)N[C@@H](Cc1c[nH]cn1)C(=O)N[C@@H](CCCCN)C(=O)NCC(=O)N1[C@H](C(=O)N[C@@H](CCCC)C(=O)NC(C)(C)C(=O)N[C@@H](Cc2ccc(Cl)cc2)C(=O)O)C[C@@H]2CCCC[C@@H]21) [modified apelin polypeptide SEQ ID NO: 547]	–	–	0.00133 µM	0.000404 µM
QRPRLSHKGPXPF ({Acetyl-NH}Q[r]P[hArg][aMeLeu]SHKGP[Nle] P[4-Cl-F]{COOH}: N-terminal acetyl; r = D-Arg; hArg, aMeLeu, Nle, 4-Cl-F non-canonical; free C-terminal acid) [Acetylated version of peptide in Fc-peptide conjugate #1 (SEQ ID NO: 70)]	0.00974 µM	–	–	–
QRPRLSHKGPXPF ({Acetyl-NH}Q[NMehArg]P[NMeArg][aMeLeu]SHKGP[Nle]P[4-Cl-F]{COOH: N-terminal acetyl; NMehArg, NMeArg, aMeLeu, Nle, 4-Cl-F non-canonical; free C-terminal acid) [Acetylated version of peptide in Fc-peptide conjugate #3 (SEQ ID NO: 95)]	0.00393 µM	–	–	–
